Measurements: publication PMC6745501, “Plant photoreceptors and their signaling components compete for COP1 binding via VP peptide motifs” (The EMBO Journal, 2019)

Target: UVR8^HY5C44 chimera (recombinant) (Arabidopsis)
Assay: SEC; purified recombinant chimeric UVR8 proteins alone, in the absence of UV-B

## UVR8^HY5C44 chimera (recombinant)
  stoichiometry N: 2
